pKd: −log10 of the molar value.

Data on one substance can be found in publication PMC6755124.

The test system of this data set is C6orf203 mature form (Homo sapiens). Description: EMSA. The following applies: 100 nM RNA, 0-2.56 uM protein; EMSA buffer, salt, pH and temperature not given (performed as previously described, ref 19); 100 nM fluorescein-labeled RNA; protein purified in 25 mM Tris-HCl ….

For orientation: pKd means −log10 of the Kd, conventionally taken in molar units. With mt-tRNAPro, the pKd is 6.54.
